Experimental data reported in US20190062453A1 (Hoffmann-La Roche, published 2019).
Substitutions are numbered along the chain they refer to.

T1: Recombinant human DcR1-Fc (human, UniProt O14798 26-221)
T1 construct: bought; also called huDcR1Fc; human DcR1 (TNFRSF10C); Fc part of the bought chimera not given
T1 sequence (looked up): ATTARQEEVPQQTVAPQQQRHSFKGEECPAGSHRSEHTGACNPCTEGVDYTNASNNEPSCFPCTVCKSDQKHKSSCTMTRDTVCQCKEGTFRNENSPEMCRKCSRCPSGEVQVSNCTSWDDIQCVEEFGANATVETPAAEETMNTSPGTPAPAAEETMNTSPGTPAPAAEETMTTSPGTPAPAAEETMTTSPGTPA

T2: Recombinant human OPG-Fc (human, UniProt O00300 22-194)
T2 construct: bought; also called rhuOPGFc; human Osteoprotegerin; Fc part of the bought chimera not given
T2 sequence (looked up): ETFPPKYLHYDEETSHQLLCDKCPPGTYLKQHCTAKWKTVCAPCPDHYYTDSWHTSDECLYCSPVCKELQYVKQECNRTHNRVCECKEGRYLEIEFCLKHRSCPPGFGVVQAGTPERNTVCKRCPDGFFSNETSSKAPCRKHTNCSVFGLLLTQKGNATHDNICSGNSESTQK

T3: Recombinant human DcR2-Fc (human, UniProt Q9UBN6 56-211)
T3 construct: bought for the phage antibodies; also called huDcR2Fc; human DcR2 (TNFRSF10D); not shown: Fc part of the chimera
T3 sequence (looked up): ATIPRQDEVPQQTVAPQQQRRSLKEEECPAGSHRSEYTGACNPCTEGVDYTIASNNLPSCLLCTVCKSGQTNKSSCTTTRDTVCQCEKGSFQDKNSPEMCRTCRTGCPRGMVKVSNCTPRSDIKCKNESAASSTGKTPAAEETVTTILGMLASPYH

B1: DR5TAA-0011 (antibody, V domains shown)
VH: QSVEESGGRLVTPGTPLTLTCTVSGFSISRYAMIWVRQAPGEGLEYIGFITSDSSAYYASWAKGRFTISKTSTTVDLKMTSPTTEDTATYFCARYTYSDGTDLWGPGTLVTVSS
VL: DIVMTQTPASVSEPVGGTVTIKCQASQSISTYLSWYQQKPGQPPKRLIYKASTLASGVPSRFKGSGSGTDFTLTIRDLECADAATYYCQPNSGIATYGAAFGGGTEVVVKG
notes: also called 174; clone 174
B2: DR5TAA-0010 (antibody, V domains shown)
VH: QSLEESGGRLVKPDETLTLTCTVSGFSLSSNAISWVRQAPGMGLEWIGIIGSSGYTYYASWAKGRFTVSKTSTTVDLEIASPTTEDTATYFCARGYSGASDYSFNLWGPGTLVTVSS
VL: AYDMTQTPDSVEVAVGGTVTIKCQASQTIGDALAWYQQKPGQRPNLLIYRTSTLASGVPSRFSGSGSGTHFTLTISGVECADAATYYCQQGATYNNVLNTFGGGTEVVVKG
notes: rabbit IgG; also called 481; clone 481
B3: DR5TAA-0016 (antibody, V domains shown)
VH: QSLEESGGRLVKPDETLTLTCTVSGFSLNNYAMSWVRQAPGKGLEWIGMINKYGTKYYATWTKGRATISKTSTTLDLEITSPTTEDTATYFCARVRYAGDDYAEWLDVWGQGILVTVSS
VL: DIVMTQTASPVSAAVGGTVTINCQASQSISSSYVSWYQQKPGQPPKLLIYKASTLASGVPSRFSGSGSGTQLSLTIRGVQCDDAATYYCLYGYSDVSSSEYVFGGGTEVVVRG
B4: DR5TAA-0019 (antibody, V domains shown)
VH: QSVEESGGRLVTPGTPLTLTCTVSGFSLSNYAMSWVRQAPGKGLEWIGIISSSGTTYYASWAKGRFTISKTSTTVDLKVTSPTTEDTATYFCARETYYGYSYAAGLWGPGTLVTVSS
VL: ALVMTQTPSSVSAAVGGTVTINCQASQNIYSNLAWFQQKPGQPPKLLIYETSKLASGVPSRFSGSGSGTEFTLTISDLECDDAATYYCQSSWHSISTDCAFGGGTEVVVKG
notes: rabbit IgG
B5: DR5TAA-0005 (antibody, V domains shown)
VH: QSLEESGGRLVTPGTPLTLTCTASGFSLSSAYMSWVRQAPGKGLEWIGYIYSGSGSTWYASWVKGRFTISKTSTTVDLKITSPTTEDTATYFCARGYSTMGDLWGPGTLVTVSS
VL: QVLTQTPSPVSAAVGGTVTINCQASQSVYNNRLAWYQQKPGQPPKLLIYLASTLASGVPSRFKGSGSGTQFTLTISDLQCDDAATYYCAGGYSGNINAFGGGTEVVVKG
notes: rabbit IgG; also called 039; clone 039
B6: 4G8 IgG (antibody, V domains shown)
VH: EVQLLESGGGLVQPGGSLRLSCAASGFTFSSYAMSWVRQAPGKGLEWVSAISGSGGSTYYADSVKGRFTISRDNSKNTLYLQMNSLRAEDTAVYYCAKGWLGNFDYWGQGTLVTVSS
VL: EIVLTQSPGTLSLSPGERATLSCRASQSVSRSYLAWYQQKPGQAPRLLIIGASTRATGIPDRFSGSGSGTDFTLTISRLEPEDFAVYYCQQGQVIPPTFGQGTKVEIK
notes: also called FAP (4G8) IgG molecule; parental 4G8 IgG
B7: 5E11 (antibody, V domains shown)
VH: not shown
VL: B6 VL with R31S, I50Y, T54S, Q93T, V94T, I95H, P97I
notes: Phage display Fab converted into hu IgG1, kappa light chain; also called clone 5E11
B8: 18F11 (antibody, IgG1, V domains shown)
VH: not shown
VL: B6 VL with R31S, I50Y, T54S, V94L, I95P, P97I
notes: hu IgG1
B9: 20F2 (antibody, IgG1, V domains shown)
VH: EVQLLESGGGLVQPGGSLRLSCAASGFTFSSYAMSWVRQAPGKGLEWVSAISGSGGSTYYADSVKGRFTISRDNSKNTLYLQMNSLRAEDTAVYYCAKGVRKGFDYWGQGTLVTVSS
VL: B6 VL with R31S, I50Y, T54S, Q93E, V94S, I95P
notes: hu IgG1; also called DR5 (20F2)
B10: 22E9 (antibody, IgG1, V domains shown)
VH: not shown
VL: B6 VL with R31S, I50Y, T54S, Q93S, V94N, I95Q, P97V
notes: hu IgG1
B11: 21H3 (antibody, IgG1, V domains shown)
VH: not shown
VL: B6 VL with R31S, I50Y, T54S, Q93S, V94Q, I95P, P97I
notes: hu IgG1
B12: DR5TAA-0006 (antibody, V domains shown)
VH: QSLEESGGRLVTPGTPLTLTCTASGFSLSSNHMSWVRQAPGKGLEWIGYIYAGSGSAYYASWAKGRFTISRTSTTVDLKMTSLTTEDTATYFCAGDAGSSYWEFNLWGPGTLVTVSS
VL: LVMTQTPSSTSEPVGGTVTIKCQASQSIGSSLSWYQQKPGQPPKLLIYHASTLASGVPSRFSGSRSGIQTTLTISGVQCDDAATYYCLGVADARRDDGFAFGGGTEVVVKG
notes: rabbit IgG; also called 058; clone 058
B13: DR5TAA-0013 (antibody, V domains shown)
VH: B12 VH with S27T, L28I, N31Y, G55A, A57T, Y58W, A63V, R71K, G95R
VL: LVMTQTPSSTSEPVGGTVTIKCQASQSIGSSLSWYQQTPGQPPKLLIYTASSLASSVPKRFSGSRSGTQFTLTISGVQCADAATYYCLGIDDVRRDDGFAFGGGTEVVVKG
notes: rabbit IgG; also called 298; clone 298

How the values were obtained:
Recombinant human DR4-Fc [1] = target: T4, Recombinant human DR4-Fc (human, UniProt O00220 109-239); test: binding ELISA
T4 construct: bought; also called huDR4Fc; human DR4 (TNFRSF10A); Fc part of the bought chimera not given

[2] = target: T5, murine DR5 ECD-AcTev-hu Fc-Avi (murine, UniProt Q9QZM4 53-153); test: binding ELISA
T5 construct: range 53-153; also called mouse DR5

[3] = target: T1, Recombinant human DcR1-Fc; test: binding ELISA
Recombinant human OPG-Fc [4] = target: T2, Recombinant human OPG-Fc; test: binding ELISA
[5] = target: T3, Recombinant human DcR2-Fc; test: binding ELISA
human DR5 ECD-Avi-his = target: T6, human DR5 ECD-Avi-his (human, UniProt O14763 56-207); test: SPR, rabbit IgG captured by anti rabbit, monomeric DR5 injected
T6 construct: also called recombinant human DR5 (monomeric His-Avi fusion protein); monomeric human DR5
Experimental: The sample and system buffer was PBS-T (10 mM phosphate buffered saline including 0.05% Tween20) pH 7.4. The flow cell was set to 25° C.—and the sample block set to 12° C.—and primed with running buffer twice.
The dissociation phase was monitored for up to 300 sec and triggered by switching from the sample solution to running buffer. The surface was regenerated by 60 sec washing with a 100 mM H3PO4 (phosphoric acid) solution at a flow rate of 30 μl/min. Bulk refractive index differences were corrected by subtracting the response obtained from a blank surface. Buffer injections are also subtracted (=double referencing). For calculation of KD and other kinetic parameters the Langmuir 1:1 model was used.

[6] = target: T7, human DR5 (monomeric Fc fusion) (human, UniProt O14763 56-207, biotinylated at the Avi tag in the ELISA (the tag is not in the letters)); test: biochemical ELISA, biotinylated antigen on streptavidin plate
T7 construct: biotinylated in the ELISA; also called ECD-AcTev-hu Fc knob-Avi; not shown: AcTev site, hu Fc knob and Avi part of the fusion chain, and the separate Fc-hole chain

[7] = target: T8, Cynom. DR5 (ECD)-AcTev-Fc-Avi (cynomolgus); test: as above
T8 construct: also called cynomolgus DR5; cy DR5
Experimental: Antigen binding immunoassays were performed at room temperature on 384 well streptavidin coated microtiter plates (MicroCoat Biotechnologie GmbH) with PBS buffer supplemented with 0.05% Tween®-20 and 0.5% BSA (Roche Diagnostics GmbH). […] After 90 min incubation the plate was washed 6 times with PBST (phosphate buffered saline with 0.2% Tween®-20) and developed with BM Blue® HRP substrate solution (BM Blue®: 3,3′-5,5′-Tetramethylbenzidine, Roche Diagnostics GmbH) for 30 minutes at RT. Absorbance was measured at 370 nm. The blank value was defined without addition of supernatant.

human FAP on cells = target: T9, human FAP on cells (human, UniProt Q12884 1-760); test: FACS on recombinant HEK293 cells expressing human FAP
T9 construct: whole, on cells; also called human FAP expressed on recombinant HEK293 cells; FAP on GM05389 fibroblasts

Recombinant human DR4-Fc [8] = target: T4, Recombinant human DR4-Fc; test: SPR, receptor-Fc on CM5 chip
[9] = target: T1, Recombinant human DcR1-Fc; test: SPR, receptor-Fc on CM5 chip
Recombinant human OPG-Fc [10] = target: T2, Recombinant human OPG-Fc; test: SPR, receptor-Fc on CM5 chip
[11] = target: T3, Recombinant human DcR2-Fc; test: SPR, receptor-Fc on CM5 chip
[12] = target: T5, murine DR5 ECD-AcTev-hu Fc-Avi; test: SPR, biotinylated DR5 on SA chip

Binder	binding result (Recombinant human DR4-Fc [1])	binding result [2]	binding result [3]	binding result (Recombinant human OPG-Fc [4])	binding result [5]	Kd (human DR5 ECD-Avi-his) [nM]	EC50 [6] [ng/mL]	EC50 [7] [ng/mL]	binding result (human FAP on cells)	binding result (Recombinant human DR4-Fc [8])	binding result [9]	binding result (Recombinant human OPG-Fc [10])	binding result [11]	binding result [12]
B1	no binding	no binding	no binding	no binding	no binding	4.24	2	4.3						
B2	no binding	no binding	no binding	no binding	no binding	15.9	2.8	8.7						
B3	no binding	no binding	no binding	no binding	no binding	1.45	4	2.7						
B4	no binding	no binding	no binding	no binding	no binding	0.675	3.5	2.2						
B5	no binding	no binding	no binding	no binding	no binding	13.3	2.5	3.7						
B6									binds					
B7										no binding (tested: 500, 100 and 25 nM)	no binding (tested: 500, 100 and 25 nM)	no binding (tested: 500, 100 and 25 nM)	no binding (tested: 500, 100 and 25 nM)	no binding (tested: 500, 100 and 25 nM)
B8										no binding (tested: 500, 100 and 25 nM)	no binding (tested: 500, 100 and 25 nM)	no binding (tested: 500, 100 and 25 nM)	no binding (tested: 500, 100 and 25 nM)	no binding (tested: 500, 100 and 25 nM)
B9										no binding (tested: 500, 100 and 25 nM)	no binding (tested: 500, 100 and 25 nM)	no binding (tested: 500, 100 and 25 nM)	no binding (tested: 500, 100 and 25 nM)	no binding (tested: 500, 100 and 25 nM)
B10										no binding (tested: 500, 100 and 25 nM)	no binding (tested: 500, 100 and 25 nM)	no binding (tested: 500, 100 and 25 nM)	no binding (tested: 500, 100 and 25 nM)	no binding (tested: 500, 100 and 25 nM)
B11										no binding (tested: 500, 100 and 25 nM)	no binding (tested: 500, 100 and 25 nM)	no binding (tested: 500, 100 and 25 nM)	no binding (tested: 500, 100 and 25 nM)	no binding (tested: 500, 100 and 25 nM)
B12	no binding	no binding	no binding	no binding	no binding	5.92	2	1.6						
B13	no binding	no binding	no binding	no binding	no binding	9.12	2.1	2.1						
